Experimental data published in patent US20240270846A1 (published 2024).
Substitutions are numbered along the chain they refer to. Names and notes keep the numbering of the source.

B1: CE115HA000 S62P one-arm antibody (antibody, human IgG1, kappa, L234A L235A, N297A, name in Kabat numbering)
heavy: QVQLVESGGGVVQPGRSLRLSCAASGFTFSNAWMHWVRQAPGKGLEWVAQIKAKSNNYATYYAEPVKGRFTISRDDSKNSLYLQMNSLKTEDTAVYYCRYVHYGAYYGVDAWGQGTTVTVSSASTKGPSVFPLAPSSKSTSGGTAALGCLVKDYFPEPVTVSWNSGALTSGVHTFPAVLQSSGLYSLSSVVTVPSSSLGTQTYICNVNHKPSNTKVDKKVEPKSCDKTHTCPPCPAPEAAGGPSVFLFPPKPKDTLMISRTPEVTCVVVDVSHEDPEVKFNWYVDGVEVHNAKTKPREEQYASTYRVVSVLTVLHQDWLNGKEYKCKVSNKALPAPIEKTISKAKGQPREPQVYTLPPSRCELTKNQVSLSCAVKGFYPSDIAVEWESNGQPENNYKTTPPVLDSDGSFFLVSKLTVDKSRWQQGNVFSCSVMHEALHNHYTQKSLSLSPDYKDDDDK
chain: EPKSSDKTHTCPPCPAPELLGGPSVFLFPPKPKDTLMISRTPEVTCVVVDVSHEDPEVKFNWYVDGVEVHNAKTKPREEQYNSTYRVVSVLTVLHQDWLNGKEYKCKVSNKALPAPIEKTISKAKGQPREPQVCTLPPSRDELTKNQVSLWCLVKGFYPSDIAVEWESNGQPENNYKTTPPVLDSDGSFFLYSKLTVDKSRWQQGNVFSCSVMHEALHNRYTQKSLSLSP
light: DIVMTQSPLSLPVTPGEPASISCRSSQSLVHSNRNTYLHWYQQKPGQAPRLLIYKVSNRFSGVPDRFSGSGSGTDFTLKISRVEAEDVGVYYCGQGTQVPYTFGQGTKLEIKRTVAAPSVFIFPPSDEQLKSGTASVVCLLNNFYPREAKVQWKVDNALQSGNSQESVTEQDSKDSTYSLSSTLTLSKADYEKHKVYACEVTHQGLSSPVTKSFNRGEC
notes: one-arm antibody
B2: CE115HA000 Y97R one-arm antibody (antibody, human IgG1, kappa, L234A L235A, N297A, name in Kabat numbering)
heavy: B1 heavy with P65S, Y103R
chain: B1 chain
light: B1 light
notes: one-arm antibody
B3: CE115HA000 Y100D one-arm antibody (antibody, human IgG1, kappa, L234A L235A, N297A, name in Kabat numbering)
heavy: B1 heavy with P65S, Y106D
chain: B1 chain
light: B1 light
notes: one-arm antibody
B4: CE115HA000 V100cP one-arm antibody (antibody, human IgG1, kappa, L234A L235A, N297A, name in Kabat numbering)
heavy: B1 heavy with P65S, V109P
chain: B1 chain
light: B1 light
notes: one-arm antibody
B5: CE115HA000 Y100aF one-arm antibody (antibody, human IgG1, kappa, L234A L235A, N297A, name in Kabat numbering)
heavy: B1 heavy with P65S, Y107F
chain: B1 chain
light: B1 light
notes: one-arm antibody
B6: CE115HA000 V95K one-arm antibody (antibody, human IgG1, kappa, L234A L235A, N297A, name in Kabat numbering)
heavy: B1 heavy with P65S, V101K
chain: B1 chain
light: B1 light
notes: one-arm antibody
B7: CE115HA000 Y97D one-arm antibody (antibody, human IgG1, kappa, L234A L235A, N297A, name in Kabat numbering)
heavy: B1 heavy with P65S, Y103D
chain: B1 chain
light: B1 light
notes: one-arm antibody
B8: CE115HA000 V95D one-arm antibody (antibody, human IgG1, kappa, L234A L235A, N297A, name in Kabat numbering)
heavy: B1 heavy with P65S, V101D
chain: B1 chain
light: B1 light
notes: one-arm antibody
B9: CE115HA000 Y97S one-arm antibody (antibody, human IgG1, kappa, L234A L235A, N297A, name in Kabat numbering)
heavy: B1 heavy with P65S, Y103S
chain: B1 chain
light: B1 light
notes: one-arm antibody
B10: CE115HA000 Y100S one-arm antibody (antibody, human IgG1, kappa, L234A L235A, N297A, name in Kabat numbering)
heavy: B1 heavy with P65S, Y106S
chain: B1 chain
light: B1 light
notes: one-arm antibody
B11: CE115HA000 Y100aK one-arm antibody (antibody, human IgG1, kappa, L234A L235A, N297A, name in Kabat numbering)
heavy: B1 heavy with P65S, Y107K
chain: B1 chain
light: B1 light
notes: one-arm antibody
B12: CE115HA000 Y100P one-arm antibody (antibody, human IgG1, kappa, L234A L235A, N297A, name in Kabat numbering)
heavy: B1 heavy with P65S, Y106P
chain: B1 chain
light: B1 light
notes: one-arm antibody
B13: CE115HA000 Y100K one-arm antibody (antibody, human IgG1, kappa, L234A L235A, N297A, name in Kabat numbering)
heavy: B1 heavy with P65S, Y106K
chain: B1 chain
light: B1 light
notes: one-arm antibody
B14: CE115HA000 Y100aD one-arm antibody (antibody, human IgG1, kappa, L234A L235A, N297A, name in Kabat numbering)
heavy: B1 heavy with P65S, Y107D
chain: B1 chain
light: B1 light
notes: one-arm antibody
B15: CE115HA000 Y100V one-arm antibody (antibody, human IgG1, kappa, L234A L235A, N297A, name in Kabat numbering)
heavy: B1 heavy with P65S, Y106V
chain: B1 chain
light: B1 light
notes: one-arm antibody
B16: CE115HA000 V95E one-arm antibody (antibody, human IgG1, kappa, L234A L235A, N297A, name in Kabat numbering)
heavy: B1 heavy with P65S, V101E
chain: B1 chain
light: B1 light
notes: one-arm antibody
B17: CE115HA000 Y100aG one-arm antibody (antibody, human IgG1, kappa, L234A L235A, N297A, name in Kabat numbering)
heavy: B1 heavy with P65S, Y107G
chain: B1 chain
light: B1 light
notes: one-arm antibody
B18: CE115HA000 Y100G one-arm antibody (antibody, human IgG1, kappa, L234A L235A, N297A, name in Kabat numbering)
heavy: B1 heavy with P65S, Y106G
chain: B1 chain
light: B1 light
notes: one-arm antibody
B19: CE115HA000 Y100W one-arm antibody (antibody, human IgG1, kappa, L234A L235A, N297A, name in Kabat numbering)
heavy: B1 heavy with P65S, Y106W
chain: B1 chain
light: B1 light
notes: one-arm antibody
B20: CE115HA000 V95A one-arm antibody (antibody, human IgG1, kappa, L234A L235A, N297A, name in Kabat numbering)
heavy: B1 heavy with P65S, V101A
chain: B1 chain
light: B1 light
notes: one-arm antibody
B21: CE115HA000 S74A one-arm antibody (antibody, human IgG1, kappa, L234A L235A, N297A, name in Kabat numbering)
heavy: B1 heavy with P65S, S77A
chain: B1 chain
light: B1 light
notes: one-arm antibody
B22: CE115HA000 Y100Q one-arm antibody (antibody, human IgG1, kappa, L234A L235A, N297A, name in Kabat numbering)
heavy: B1 heavy with P65S, Y106Q
chain: B1 chain
light: B1 light
notes: one-arm antibody
B23: CE115HA000 Y100aA one-arm antibody (antibody, human IgG1, kappa, L234A L235A, N297A, name in Kabat numbering)
heavy: B1 heavy with P65S, Y107A
chain: B1 chain
light: B1 light
notes: one-arm antibody
B24: CE115HA000 Y97P one-arm antibody (antibody, human IgG1, kappa, L234A L235A, N297A, name in Kabat numbering)
heavy: B1 heavy with P65S, Y103P
chain: B1 chain
light: B1 light
notes: one-arm antibody
B25: CE115HA000 S77T one-arm antibody (antibody, human IgG1, kappa, L234A L235A, N297A, name in Kabat numbering)
heavy: B1 heavy with P65S, S80T
chain: B1 chain
light: B1 light
notes: one-arm antibody
B26: CE115HA000 V100cE one-arm antibody (antibody, human IgG1, kappa, L234A L235A, N297A, name in Kabat numbering)
heavy: B1 heavy with P65S, V109E
chain: B1 chain
light: B1 light
notes: one-arm antibody
B27: CE115HA000 V95G one-arm antibody (antibody, human IgG1, kappa, L234A L235A, N297A, name in Kabat numbering)
heavy: B1 heavy with P65S, V101G
chain: B1 chain
light: B1 light
notes: one-arm antibody
B28: CE115HA000 Y100L one-arm antibody (antibody, human IgG1, kappa, L234A L235A, N297A, name in Kabat numbering)
heavy: B1 heavy with P65S, Y106L
chain: B1 chain
light: B1 light
notes: one-arm antibody
B29: CE115HA000 V100cD one-arm antibody (antibody, human IgG1, kappa, L234A L235A, N297A, name in Kabat numbering)
heavy: B1 heavy with P65S, V109D
chain: B1 chain
light: B1 light
notes: one-arm antibody
B30: CE115HA000 S74P one-arm antibody (antibody, human IgG1, kappa, L234A L235A, N297A, name in Kabat numbering)
heavy: B1 heavy with P65S, S77P
chain: B1 chain
light: B1 light
notes: one-arm antibody
B31: CE115HA000 Y100A one-arm antibody (antibody, human IgG1, kappa, L234A L235A, N297A, name in Kabat numbering)
heavy: B1 heavy with P65S, Y106A
chain: B1 chain
light: B1 light
notes: one-arm antibody
B32: CE115HA000 V95S one-arm antibody (antibody, human IgG1, kappa, L234A L235A, N297A, name in Kabat numbering)
heavy: B1 heavy with P65S, V101S
chain: B1 chain
light: B1 light
notes: one-arm antibody

Target: T1, CD3 epsilon homodimer protein (UniProt P07766 23-126)
T1 construct: Construct of the homodimer protein is not described; also called CD3 (CD3 epsilon)
Test: SPR (Biacore T200), CD3 epsilon homodimer on CM4 chip, one-arm antibody as analyte; ratio to unaltered CE115HA000;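 further: surface plasmon resonance run at 25 °C with HBS-EP+ as running buffer, CD3 epsilon homodimer attached by amine coupling, antibody passed over as analyte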

T1 sequence (P07766 23-126): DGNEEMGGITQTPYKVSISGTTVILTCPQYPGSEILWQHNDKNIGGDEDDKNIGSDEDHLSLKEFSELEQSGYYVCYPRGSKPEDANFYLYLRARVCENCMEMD

KD ratio (KD value of CE115HA000/KD value of the altered form)	Binder
0.77	B1
23200	B2
0.63	B3
0.97	B4
0.98	B5
1.15	B6
64.7	B7
108	B8
1180	B9
0.7	B10
0.79	B11
1.3	B12
0.93	B13
1.2	B14
0.92	B15
50.5	B16

KD ratio (KD value of CE115HA000/KD value of the altered form)	Binder
1.01	B17
0.97	B18
0.96	B19
3.15	B20
0.77	B21
0.77	B22
0.66	B23
12400	B24
0.83	B25
1.31	B26
78300	B27
0.67	B28
1.64	B29
0.7	B30
0.92	B31
4.61	B32
